Each block holds one binder with its values, some of them ahead of it. Where no end group is shown, it is not given here.
Legend:
[1] = molecular target: T1, MBP-PTH1R ECD-(His)6 fusion protein (UniProt Q03431 29-187); assay: AlphaScreen competition against biotin-PTH(7-34)NH2 (23 nM) for MBP-PTH1R ECD-H6 (23 nM)
T1 construct: range 29-187; Expressed in E. coli, disulfide shuffled in vitro; also called MBP-PTH1R ECD-H6; MBP-PTH1R ECD fusion protein
T1 sequence: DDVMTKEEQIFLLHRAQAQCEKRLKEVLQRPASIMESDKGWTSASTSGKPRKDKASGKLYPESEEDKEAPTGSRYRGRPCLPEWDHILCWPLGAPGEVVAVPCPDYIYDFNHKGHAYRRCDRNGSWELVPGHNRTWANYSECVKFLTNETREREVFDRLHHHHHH
Method: (§1) ECD-peptide binding assays. The binding of peptides to the MBP-PTH1R ECD-H6 fusion protein was assessed using an AlphaScreen assay (Perkin-Elmer). […] The pre-coupling reactions were mixed, un-labeled competitor peptides were added as indicated, and the reactions were incubated 4 to 5 hrs to reach equilibrium. Photon counts were recorded in 384-well optiplates using an Envision 2104 plate reader (Perkin-Elmer). Prism 5.0 software (GraphPad Software, San Diego) was used to fit the data to a fixed-slope dose-response inhibition equation for determination of IC50 values. Real-time analysis of the binding of peptides to the isolated PTH1R ECD using the Octet Red system (ForteBio) was performed as described in below.

[2] = molecular target: T1, MBP-PTH1R ECD-(His)6 fusion protein; assay: AlphaScreen competition; competitor titrated against biotin-PTH(7-34)NH2 (23 nM) on MBP-PTH1R ECD (23 nM) [panel B]
Method: as §1

[3] = molecular target: T1, MBP-PTH1R ECD-(His)6 fusion protein; assay: AlphaScreen competition; competitor titrated against biotin-PTH(7-34)NH2 (23 nM) on MBP-PTH1R ECD (23 nM) [panel A]
Method: as §1

[4] = molecular target: T2, PTH1R in cell membranes, G protein-uncoupled conformation (R0) (UniProt Q03431 27-593, limits assumed); assay: competition binding, PTH1R in cell membranes, R0 state (GTPγS), n = 3
T2 construct: whole, on cells; Cell membranes, not intact cells; R0 state studied by including GTPγS in the reactions; also called G protein-uncoupled receptor
T2 sequence (looked up): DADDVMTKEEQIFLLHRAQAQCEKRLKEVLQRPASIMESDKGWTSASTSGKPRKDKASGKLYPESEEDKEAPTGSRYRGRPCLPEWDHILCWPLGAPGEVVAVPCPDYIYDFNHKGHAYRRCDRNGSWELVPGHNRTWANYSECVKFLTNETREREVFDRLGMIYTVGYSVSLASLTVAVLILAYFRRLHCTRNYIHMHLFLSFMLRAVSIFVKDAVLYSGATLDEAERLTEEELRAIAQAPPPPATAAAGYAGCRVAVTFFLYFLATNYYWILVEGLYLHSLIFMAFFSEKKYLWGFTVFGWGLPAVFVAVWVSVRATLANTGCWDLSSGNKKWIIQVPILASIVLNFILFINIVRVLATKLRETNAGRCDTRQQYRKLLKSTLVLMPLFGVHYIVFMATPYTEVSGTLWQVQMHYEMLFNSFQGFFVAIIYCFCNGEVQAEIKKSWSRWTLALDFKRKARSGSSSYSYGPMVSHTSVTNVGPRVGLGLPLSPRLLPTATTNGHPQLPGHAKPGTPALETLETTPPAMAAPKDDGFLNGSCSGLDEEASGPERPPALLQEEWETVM

[5] = molecular target: T3, PTH1R in cell membranes, G protein-coupled conformation (RG) (UniProt Q03431 27-593); assay: competition binding, PTH1R in cell membranes, RG state (dominant negative Gαs), n = 3
T3 construct: whole, on cells; Cell membranes, not intact cells; RG state studied by co-expressing the receptor with dominant negative Gαs; also called G protein-coupled receptor

[6] = molecular target: T2, PTH1R in cell membranes, G …; assay: ratio of IC50 at R0 to IC50 at RG, cell membranes
[7] = molecular target: T4, hPTH1R transiently expressed in COS-1 cells (human, UniProt Q03431 27-593); assay: cell-based or functional assay
T4 sequence (looked up): T2 sequence (looked up)

IC50 [1]: ~2000 nM
IC50 (read off the curve) [2]: ~2000 nM
Binder: GKSIQDLRRRFFLHHLIAEIHTA-OH (Free C-terminal carboxylic acid) [PTHrP(12-34)OH]

IC50 [1]: ~2000 nM
IC50 (read off the curve) [2]: ~1000 nM
B1: PTHrP(12-34)NH2 (peptide)
peptide: GKSIQDLRRRFFLHHLIAEIHTA-NH2
notes: also called C-terminally amidated 12-34 fragment of PTHrP

IC50 [1]: ~1000 nM
IC50 (read off the curve) [3]: ~800 nM
Binder: GKHLNSMERVEWLRKKLQDVHNF-NH2 [PTH(12-34)NH2]

IC50 [4]: 25 nM
IC50 Log M [4]: -7.6 Log M
IC50 [5]: 0.68 nM
IC50 Log M [5]: -9.3 Log M
RO/RG [6]: 36.8 fold
Binder: SVSEIQLMHNLGKHLNSMERVEWLRKLLQDIHNF-NH2 [PTH(1-34)NH2 [K27L/V31I]]

IC50 [4]: 13.5 nM
IC50 Log M [4]: -7.9 Log M
IC50 [5]: 0.23 nM
IC50 Log M [5]: -9.7 Log M
RO/RG [6]: 59 fold
Binder: SVSEIQLMHNLGKHLNSMERVEFLRKKLQDVHNF-NH2 [PTH(1-34)NH2 [W23F]]

IC50 [4]: 8.7 nM
IC50 Log M [4]: -8.1 Log M
IC50 [5]: 0.33 nM
IC50 Log M [5]: -9.6 Log M
RO/RG [6]: 26.4 fold
Binder: SVSEIQLMHNLGKHLNSMERVEFLRKLLQDVHNF-NH2 [PTH(1-34)NH2 [W23F/K27L]]

IC50 [4]: 53 nM
IC50 Log M [4]: -7.3 Log M
IC50 [5]: 0.78 nM
IC50 Log M [5]: -9.2 Log M
RO/RG [6]: 68 fold
Binder: SVSEIQLMHNLGKHLNSMERVEFLRKLIQDIHNF-NH2 [PTH(1-34)NH2 [W23F/K27L/L28I/V31I]]

IC50 [4]: 81 nM
IC50 Log M [4]: -7.1 Log M
EC50, cAMP accumulation dose-response [7]: 0.0415 nM
maximal cAMP level relative to wt peptide [7]: ~80%
IC50 [5]: 0.21 nM
IC50 Log M [5]: -9.7 Log M
RO/RG [6]: 386 fold
Binder: SVSEIQLMHNLGKHLNSMERVEFLRKKLQDIHNF-NH2 (also called PTH(W23′F/V31′I)) [PTH(1-34)NH2 [W23′F/V31′I]]

IC50 [4]: 6.4 nM
IC50 Log M [4]: -8.2 Log M
IC50 [5]: 0.54 nM
IC50 Log M [5]: -9.3 Log M
RO/RG [6]: 11.9 fold
Binder: SVSEIQLMHNLGKHLNSMERVEWLRKLLQDVHNF-NH2 (also called 07-12-12-07-SBSL) [PTH(1-34)[K27L]NH2]

IC50 [4]: 4.5 nM
IC50 Log M [4]: -8.4 Log M
IC50 [5]: 0.1 nM
IC50 Log M [5]: -10 Log M
RO/RG [6]: 45 fold
Binder: SVSEIQLMHNLGKHLNSMERVEWLRKKIQDVHNF-NH2 [PTH(1-34)NH2 [L28I]]

IC50 [4]: 34 nM
IC50 Log M [4]: -7.5 Log M
IC50 [5]: 0.31 nM
IC50 Log M [5]: -9.6 Log M
RO/RG [6]: 110 fold
Binder: SVSEIQLMHNLGKHLNSMERVEWLRKKLQDIHNF-NH2 [PTH(1-34)NH2 [V31I]]

IC50 [4]: 38 nM
IC50 Log M [4]: -7.4 Log M
IC50 [5]: 0.2 nM
IC50 Log M [5]: -9.7 Log M
RO/RG [6]: 190 fold
Binder: SVSEIQLMHNLGKHLNSMERVEFLRKKIQDVHNF-NH2 [PTH(1-34)NH2 [W23F/L28I]]

IC50 [4]: 42 nM
IC50 Log M [4]: -7.4 Log M
IC50 [5]: 0.31 nM
IC50 Log M [5]: -9.6 Log M
RO/RG [6]: 135 fold
Binder: SVSEIQLMHNLGKHLNSMERVEWLRKKIQDIHNF-NH2 [PTH(1-34)NH2 [L28I/V31I]]

IC50 [4]: 41 nM
IC50 Log M [4]: -7.4 Log M
IC50 [5]: 0.07 nM
IC50 Log M [5]: -10.1 Log M
RO/RG [6]: 586 fold
Binder: AVSEHQLLHDKGKSIQDLRRRFWLHHKLAEVHTA-NH2 [PTHrP(1-34)NH2 [F23′W/L27′K/I28′L/I31′V]]
